Values belong to the binder of their own block, whether it stands above or below them.
What was measured:
[1] = molecular target: T1, CCR4 expressed on 293/EBNA-1 cells (human, UniProt P51679 1-360); experiment: displacement of 1 nM TARC-SEAP from 4x10^5 293/EBNA-1 cells expressing CCR4 by unlabeled TARC
T1 construct: whole, on cells; also called CCR4 receptor
T1 sequence (looked up): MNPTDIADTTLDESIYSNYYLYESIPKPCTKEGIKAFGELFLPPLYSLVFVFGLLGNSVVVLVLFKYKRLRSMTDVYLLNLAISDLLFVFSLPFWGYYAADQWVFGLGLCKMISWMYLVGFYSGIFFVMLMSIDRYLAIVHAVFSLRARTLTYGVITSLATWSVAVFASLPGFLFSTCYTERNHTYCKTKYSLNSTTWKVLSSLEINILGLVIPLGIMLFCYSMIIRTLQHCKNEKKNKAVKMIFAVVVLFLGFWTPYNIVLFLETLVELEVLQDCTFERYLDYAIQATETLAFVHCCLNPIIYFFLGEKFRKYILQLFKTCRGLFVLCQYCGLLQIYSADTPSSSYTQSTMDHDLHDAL
Experimental: The binding experiment was conducted in 200 μl RPMI-1640 containing 20 mM HEPES (pH 7.4), 1% BSA, and 0.02% sodium azide. […] Cells were washed and dissolved in 50 μl 10 mM Tris-HCl (pH 8.0) containing 1% Triton X-100, and treated at 65° C. for 10 minutes to inactivate the phosphatase originated from the cells. After centrifugation, the AP activity in 25 μl of the supernatant was measured. The nonspecific binding was measured using 1 nM SEAP.

[2] = molecular target: T2, receptor for TARC on Jurkat cell and certain other T-cells; experiment: displacement of 2 nM 125I-labeled TARC from Jurkat cells by unlabeled TARC, Scatchard analysis
T2 construct: also called TARC receptor; receptors for TARC

[3] = molecular target: T3, Duffy antigen/receptor for chemokine (DARC) on erythrocytes (UniProt Q16570 1-336); experiment: displacement of 0.66 nM 125I-labeled TARC from 10^8 erythrocytes by unlabeled TARC, Scatchard analysis
T3 construct: whole, on cells
T3 sequence (looked up): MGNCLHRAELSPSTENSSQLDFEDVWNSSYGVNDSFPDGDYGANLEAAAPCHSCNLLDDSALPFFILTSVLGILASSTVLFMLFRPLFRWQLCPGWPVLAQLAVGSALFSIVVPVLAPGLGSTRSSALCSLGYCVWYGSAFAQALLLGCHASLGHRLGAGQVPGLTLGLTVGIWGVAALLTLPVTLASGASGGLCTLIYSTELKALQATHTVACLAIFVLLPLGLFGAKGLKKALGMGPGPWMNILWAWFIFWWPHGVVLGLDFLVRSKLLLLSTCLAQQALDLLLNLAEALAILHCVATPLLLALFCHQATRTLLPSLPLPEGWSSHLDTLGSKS
From the text: It has been known that erythrocyte expresses a Duffy antigen/receptor for chemokine (DARC) to which various chemokines can be bound.

[4] = molecular target: T2, receptor for TARC on Jurkat cell and …; experiment: saturation binding of 125I-labeled TARC to Jurkat cells, Scatchard analysis
From the text: To determine the binding constant and the number of receptor, conditions under which the binding reaches equilibrium were examined.

IC50 [1]: ~3 nM
Kd [2]: 2.1 nM
Kd [3]: 17 nM
B1: human TARC (Thymus and Activation-Regulated Chemokine), mature secreted form, expressed in and purified from insect cells (ligand)
chain: ARGTNVGRECCLEYFKGAIPLRKLKTWYQTSEDCSRDAIVFVTVQGRAICSDPNNKRVKNAVKYLQSLERS
notes: also called hTARC; unlabeled TARC

Kd [4]: 2.1 nM
B2: 125I-labeled human TARC (ligand)
chain: B1 chain
modifications: 125I label introduced with 125I-labeled Bolton-Hunter reagent (site not stated)
notes: specific activity 81.6 uCi/ug
